From PMC9508527, “Two-component carnitine monooxygenase from Escherichia coli: functional characterization, inhibition and mutagenesis of the molecular interface” (Bioscience Reports, 2022)
Residue numbers refer to the chain shown, from its start. Names and notes keep the numbering of the source. Like-named read-outs stand apart in the source and are kept apart here.

Assays:
[1] = target: T1, CntA (carnitine monooxygenase oxygenase component) (Acinetobacter baumannii, UniProt D0C9N6); assay: L-carnitine depletion assay with purified proteins; type: biochemical
T1 construct: with CntB (homologous system) or YeaX (chimeric system)

[2] = target: T2, YeaW (carnitine monooxygenase oxygenase component) (Escherichia coli, UniProt P0ABR7); assay: L-carnitine depletion and O2 depletion assays with purified proteins; type: biochemical
T2 construct: N-terminal strep tag II fusion; with YeaX

[3] = target: T2, YeaW (carnitine monooxygenase oxygenase component); assay: L-carnitine depletion assay with purified YeaX/YeaW; slow conversion to TMA also shown by GC-MS; type: biochemical
[4] = target: T3, YeaW, Rieske-type oxygenase component of carnitine monooxygenase from E. coli (E. coli) (UniProt P0ABR7)
T3 sequence: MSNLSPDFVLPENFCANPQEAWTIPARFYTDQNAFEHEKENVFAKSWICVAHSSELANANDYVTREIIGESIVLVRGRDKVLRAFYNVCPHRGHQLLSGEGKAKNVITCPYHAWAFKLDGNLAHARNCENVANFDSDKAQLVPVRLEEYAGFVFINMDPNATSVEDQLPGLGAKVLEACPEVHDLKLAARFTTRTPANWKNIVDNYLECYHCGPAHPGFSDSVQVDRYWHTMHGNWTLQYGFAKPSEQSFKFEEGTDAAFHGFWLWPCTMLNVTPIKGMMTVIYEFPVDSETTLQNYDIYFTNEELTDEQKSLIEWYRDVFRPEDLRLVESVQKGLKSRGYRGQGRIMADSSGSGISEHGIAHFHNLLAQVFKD

[5] = target: T3, YeaW, Rieske-type oxygenase component of carnitine monooxygenase from E. coli (E. coli); remark: listed apart in the source
[6] = target: T3, YeaW, Rieske-type oxygenase component of carnitine monooxygenase from E. coli (E. coli); remark: listed apart in the source
[7] = target: the molecule itself; assay: SEC; analytical gel filtration, Superdex 200 increase 5/150 GL, 10 mM Hepes-NaOH pH 7.5, 150 mM NaCl, 0.45 ml min^-1, 20 µl samples (~300 µM), calibrated with protein standards
[8] = target: T3, YeaW, Rieske-type oxygenase component of carnitine monooxygenase from E. coli (E. coli); remark: listed apart in the source

T2 sequence (P76254 whole entry, one chain of several, the tested form may be a part): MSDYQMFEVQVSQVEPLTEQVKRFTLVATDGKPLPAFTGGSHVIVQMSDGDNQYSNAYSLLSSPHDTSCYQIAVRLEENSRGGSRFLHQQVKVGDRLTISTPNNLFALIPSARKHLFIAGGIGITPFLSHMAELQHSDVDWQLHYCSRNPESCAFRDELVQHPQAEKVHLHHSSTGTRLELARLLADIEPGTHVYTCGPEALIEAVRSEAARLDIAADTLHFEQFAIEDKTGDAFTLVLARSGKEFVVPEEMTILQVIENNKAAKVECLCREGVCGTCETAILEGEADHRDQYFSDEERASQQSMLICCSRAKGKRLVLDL
T1 sequence (D0C9N6 whole entry): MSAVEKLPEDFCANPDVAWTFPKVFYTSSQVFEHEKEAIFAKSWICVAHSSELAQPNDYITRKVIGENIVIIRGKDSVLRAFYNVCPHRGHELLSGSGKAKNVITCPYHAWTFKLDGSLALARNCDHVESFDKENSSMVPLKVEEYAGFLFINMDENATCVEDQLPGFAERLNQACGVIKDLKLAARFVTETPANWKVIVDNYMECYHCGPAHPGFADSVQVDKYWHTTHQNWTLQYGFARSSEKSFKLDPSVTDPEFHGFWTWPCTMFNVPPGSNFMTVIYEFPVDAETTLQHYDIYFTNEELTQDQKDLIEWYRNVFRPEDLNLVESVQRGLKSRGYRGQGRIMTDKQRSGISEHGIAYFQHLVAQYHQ

## C[N+](C)(C)C[C@H](O)CC(=O)[O-] [L-carnitine]
[1]
  L-carnitine depletion assay with purified proteins: 353 ± 68 nmol/min/mg
[2]
  L-carnitine depletion and O2 depletion assays with purified proteins: 1288 ± 48 nmol/min/mg

## C[N+](C)(C)NCCC(=O)[O-] [meldonium]
[3]
  IC50: 612 ± 68 µM

B1: YeaX variant K313Q (enzyme)
chain: MSDYQMFEVQVSQVEPLTEQVKRFTLVATDGKPLPAFTGGSHVIVQMSDGDNQYSNAYSLLSSPHDTSCYQIAVRLEENSRGGSRFLHQQVKVGDRLTISTPNNLFALIPSARKHLFIAGGIGITPFLSHMAELQHSDVDWQLHYCSRNPESCAFRDELVQHPQAEKVHLHHSSTGTRLELARLLADIEPGTHVYTCGPEALIEAVRSEAARLDIAADTLHFEQFAIEDKTGDAFTLVLARSGKEFVVPEEMTILQVIENNKAAKVECLCREGVCGTCETAILEGEADHRDQYFSDEERASQQSMLICCSRAQGKRLVLDL
[4]
  residual L-carnitine depletion activity (wild type = 100%): 30%
  residual O2 depletion activity (wild type = 100%): 30%

B2: YeaX variant K313E (enzyme)
chain: B1 chain with Q313E
[4]
  residual L-carnitine depletion activity (wild type = 100%): 7%
  residual O2 depletion activity (wild type = 100%): 11%

B3: YeaX variant D320K (enzyme)
chain: B1 chain with Q313K, D320K
[5]
  residual L-carnitine depletion activity (wild type = 100%): 3%
  residual O2 depletion activity (wild type = 100%): 7%

B4: YeaX variant R271K (enzyme)
chain: B1 chain with R271K, Q313K
[6]
  residual L-carnitine depletion activity (wild type = 100%): 80%
  residual O2 depletion activity (wild type = 100%): 70%

B5: YeaX variant D320N (enzyme)
chain: B1 chain with Q313K, D320N
[5]
  L-carnitine depletion activity (wild type = 100%): 9%
  O2 depletion activity (wild type = 100%): 11%

B6: YeaX variant R271Q (enzyme)
chain: B1 chain with R271Q, Q313K
[6]
  residual L-carnitine depletion activity (wild type = 100%): 4%
  residual O2 depletion activity (wild type = 100%): 11%

B7: YeaW, Rieske-type oxygenase component of carnitine monooxygenase from E. coli (enzyme, UniProt P0ABR7 1-374, looked up)
chain: T3 sequence
notes: primers run from the start to the stop codon; No cleavage of the tag is described; calculated molecular mass 45,463 Da; Carries a Rieske-type [2Fe-2S] cluster and a mononuclear [Fe] center; also called oxygenase YeaW; catalytic unit YeaW
[7]
  stoichiometry N: 3

B8: CntB, reductase component of carnitine monooxygenase from Acinetobacter baumannii (enzyme)
chain: MASHYEMFPAVVTRVEQLTPLIKRFTFKRQDGQNFPRFSGGSHIIVKMNEQLSNAYSLMSCTQDLSTYQVCVRKDVEGKGGSVFMHDQCNEGCEIQISEPKNLFPLAETGNKHILIAGGIGITPFLPQMDELAARGAEYELHYAYRSPEHAALLDELTQKHAGHVFSYVDSEGSMLNLDELISSQPKGTHVYVCGPKPMIDAVIDCCNKHRYRDEYIHWEQFASTVPEDGEAFTVVLAKSNQEIEVQSNQTILQAIETLNIDVECLCREGVCGTCETAILEGEAEHFDQYLSDAEKASQKSMMICVSRAKGKKLVLDL
[8]
  Relative L-carnitine depletion activity of the chimeric enzyme (YeaX/YeaW = 100%): 20%
  Relative O2 depletion activity of the chimeric enzyme (YeaX/YeaW = 100%): 4%
